Source: patent US20180127498A1 (UCB, published 2018)
“And” between values parts separate entries of the source, which are not always exact repeats. Equal entries are not always repeated.

What was measured:
[1] = target: T1, Cynomolgus monkey FcRn extracellular domain (non-covalent complex of Cynomolgus monkey FcRn alpha chain … (Cynomolgus monkey, UniProt Q8SPV9 24-297; Q8SPW0 21-119); experiment: SPR Biacore T200, binder captured via anti-human F(ab')2, cyno FcRn ECD as analyte, pH7.4, average of 5; pH 7.4
T1 construct: also called non-human primate FcRn
Protocol: (§1) Biomolecular interaction analysis using surface plasmon resonance technology (SPR) was performed on a Biacore T200 system (GE Healthcare) and binding to Cynomolgus monkey FcRn extracellular domain determined. Cynomolgus monkey FcRn extracellular domain was provided as a non-covalent complex between the Cynomolgus monley FcRn alpha chain extracellular domain (SEQ ID NO: 17) and […] (β2M) (SEQ ID NO: 18). Affinipure F(ab′)₂ fragment goat anti-human IgG, F(ab′)₂-specific (Jackson ImmunoResearch Lab, Inc.) at 50 μg/ml in 10 mM NaAc, pH 5 buffer was immobilized on a CMS Sensor Chip via amine coupling chemistry to a capture level between 4000-5000 response units (RU) using HBS-EP⁺ (GE Healthcare) as the running buffer.
(§2) The antibody, 1735h5.hFab-scFv.768 diluted to0.5 μg/ml in running buffer and an injection of 60 s at 10 μl/min was used for capture by the immobilized anti-human F(ab′)₂. […] The surface was regenerated at 10 μl/min by 2×60 s 50 mM HCl for the running buffer at pH6 or by 60 s 40 mM HCl and 30 s 10 mM NaOH for the running buffer at pH7.4.
(§3) The data was analysed using Biacore T200 evaluation software (version 1.0) using the 1:1 binding model with local Rmax.

[2] = target: T2, Human FcRn extracellular domain (non-covalent complex of human FcRn alpha chain extracellular domain and … (human, UniProt P55899 24-297; P61769 21-119); experiment: SPR Biacore T200, binder captured via anti-human F(ab')2, FcRn ECD as analyte, pH7.4, average of 5; pH 7.4
T2 construct: also called hFcRn
Protocol: (§4) Biomolecular interaction analysis using surface plasmon resonance technology (SPR) was performed on a Biacore T200 system (GE Healthcare) and binding to human FcRn extracellular domain determined. Human FcRn extracellular domain was provided as a non-covalent complex between the human FcRn alpha chain extracellular domain (SEQ ID NO: 21) and β2 microglobulin (β2M) (SEQ ID NO: 23). Affinipure F(ab′)₂ fragment goat anti-human IgG, F(ab′)₂-specific (Jackson ImmunoResearch Lab, Inc.) at 50 μg/ml in 10 mM NaAc, pH 5 buffer was immobilized on a CMS Sensor Chip via amine coupling chemistry to a capture level between 4000-5000 response units (RU) using HBS-EP⁺(GE Healthcare) as the running buffer.
(§5) The antibody, 1735h5.hFab-scFv.768 was diluted to 0.25 μg/ml in running buffer and an injection 60 s at 10 μl/min was used for capture by the immobilized anti-human F(ab)₂. […] The surface was regenerated at 10 μl/min by 2×60 s 50 mM HCl for the running buffer at pH6 or by 60 s 40 mM HCl and 30 s 10 mM NaOH for the running buffer at pH7.4. The data was analysed using Biacore T200 evaluation software (version 1.0) using the 1:1 binding model with local Rmax.

[3] = target: T2, Human FcRn extracellular domain …; experiment: SPR Biacore T200, binder captured via anti-human F(ab')2, FcRn ECD as analyte, pH6; pH 6
Protocol: as §4, §5

[4] = target: T1, Cynomolgus monkey FcRn extracellular …; experiment: SPR Biacore T200, binder captured via anti-human F(ab')2, cyno FcRn ECD as analyte, pH7.4; pH 7.4
Protocol: as §1, §2, §3

[5] = target: T1, Cynomolgus monkey FcRn extracellular …; experiment: SPR Biacore T200, binder captured via anti-human F(ab')2, cyno FcRn ECD as analyte, pH6; pH 6
Protocol: as §1, §2, §3

[6] = target: T1, Cynomolgus monkey FcRn extracellular …; experiment: SPR Biacore T200, binder captured via anti-human F(ab')2, cyno FcRn ECD as analyte, pH6, average of 5; pH 6
Protocol: as §1, §2, §3

[7] = target: T2, Human FcRn extracellular domain …; experiment: SPR Biacore T200, binder captured via anti-human F(ab')2, FcRn ECD as analyte, pH6, average of 5; pH 6
Protocol: as §4, §5

Kd [1]: 0.045 nM
koff [1]: 4.52e-05 s⁻¹
kon [1]: 1e+06 M⁻¹ s⁻¹
Kd [2]: 0.0458 nM
koff [2]: 3.94e-05 s⁻¹
kon [2]: 861000 M⁻¹ s⁻¹
kon [3]: 1.2e+06 M⁻¹ s⁻¹ and 1.1e+06 M⁻¹ s⁻¹ (3×)
kon [4]: 1e+06 M⁻¹ s⁻¹ (2×) and 999000 M⁻¹ s⁻¹
kon [5]: 1.26e+06 M⁻¹ s⁻¹ and 1.24e+06 M⁻¹ s⁻¹
Kd [6]: 0.158 nM
koff [6]: 0.000197 s⁻¹
kon [6]: 1.25e+06 M⁻¹ s⁻¹
Kd [7]: 0.16 nM
koff [7]: 0.000181 s⁻¹
kon [7]: 1.13e+06 M⁻¹ s⁻¹
B1: 1735h5.hFab-scFv.768 (bispecific antibody)
heavy: EVQLVESGGGLVQPGGSLRLSCAASGFSLSTYGVGVGWVRQAPGKGLEWLANIWWDDDKRYNPSLENRFTISRDNAKNSAYLQMNSLRAEDTAVYYCARTPAYYGSHPPFDYWGQGTMVTVSSASTKGPSVFPLAPSSKSTSGGTAALGCLVKDYFPEPVTVSWNSGALTSGVHTFPAVLQSSGLYSLSSVVTVPSSSLGTQTYICNVNHKPSNTKVDKKVEPKSCSGGGGTGGGGSEVQLLESGGGLVQPGGSLRLSCAVSGIDLSNYAINWVRQAPGKCLEWIGIIWASGTTFYATWAKGRFTISRDNSKNTVYLQMNSLRAEDTAVYYCARTVPGYSTAPYFDLWGQGTLVTVSSGGGGSGGGGSGGGGSGGGGSDIQMTQSPSSVSASVGDRVTITCQSSPSVWSNFLSWYQQKPGKAPKLLIYEASKLTSGVPSRFSGSGSGTDFTLTISSLQPEDFATYYCGGGYSSISDTTFGCGTKVEIKRT
light: DIQMTQSPSSLSASVGDRVTITCRTSEDIYTNLAWYQQKPGKVPKLLIYVAKTLQEGVPSRFSGSGSGTHYTLTISSLQPEDVATYYCLQGFKFPWTFGGGTKVEIKRTVAAPSVFIFPPSDEQLKSGTASVVCLLNNFYPREAKVQWKVDNALQSGNSQESVTEQDSKDSTYSLSSTLTLSKADYEKHKVYACEVTHQGLSSPVTKSFNRGEC
notes: Anti-FcRn Fab (1638.g49 V-regions) fused at the C-terminus of CH1 to an anti-albumin disulphide stabilised scFv; expressed in CHO DG44; Monovalent for FcRn; also called Fab-dsscFv fusion protein comprising the 1638.g49 variable domains; anti-hFcRn 1735h5.hFab-scFv.768
